# According to the supplement of paper PMC9112550, “Optimization of the antimicrobial peptide Bac7 by deep mutational scanning” (BMC Biology, 2022):
# Tested on: Escherichia coli TOP10
# Test: shrunken log2 fold change of peptide-encoding DNA abundance (4.5 h post-induction vs induction); higher = less antimicrobial activity (less host growth inhibition)
# Conditions: time post-induction: 4.5 h; library: site-saturation at positions 5, 18, 19, 20
# 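Note: peptides expressed intracellularly from a pBAD plasmid library in pooled LB shake-flask culture, induced with 0.3% L-arabinose, DNA abundance read by NGS, three biological replicates, DESeq2 with apeglm shrinkage.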
row,Sequence,shrunken log2 fold change
1,RRIRYRPPRLPRPRPRPPSSPRP,-0.154
2,RRIRYRPPRLPRPRPRPPTFPRP,-0.457
3,RRIRYRPPRLPRPRPRPPVIPRP,-0.0623
4,RRIRYRPPRLPRPRPRPPVNPRP,-0.153
5,RRIRYRPPRLPRPRPRPPWHPRP,-0.507
6,RRIRYRPPRLPRPRPRPPWRPRP,0.331
7,RRIRYRPPRLPRPRPRPPWTPRP,-0.343
8,RRIRYRPPRLPRPRPRPPYFPRP,-0.262
9,RRIRYRPPRLPRPRPRPQAWPRP,0.0215
10,RRIRYRPPRLPRPRPRPQCAPRP,-0.247
11,RRIRYRPPRLPRPRPRPQCRPRP,-0.23
12,RRIRYRPPRLPRPRPRPQEHPRP,-0.65
13,RRIRYRPPRLPRPRPRPQGHPRP,-0.17
14,RRIRYRPPRLPRPRPRPQGSPRP,-0.19
15,RRIRYRPPRLPRPRPRPQKIPRP,-0.524
16,RRIRYRPPRLPRPRPRPQMCPRP,-0.0257
17,RRIRYRPPRLPRPRPRPQMNPRP,-1.27
18,RRIRYRPPRLPRPRPRPQNHPRP,-0.61
19,RRIRYRPPRLPRPRPRPQPIPRP,-0.397
20,RRIRYRPPRLPRPRPRPQQRPRP,-0.261
21,RRIRYRPPRLPRPRPRPQQVPRP,-0.0456
22,RRIRYRPPRLPRPRPRPQRIPRP,-0.0956
23,RRIRYRPPRLPRPRPRPQSPPRP,-0.0354
24,RRIRYRPPRLPRPRPRPQSWPRP,0.0202
25,RRIRYRPPRLPRPRPRPQTEPRP,0.0019

row,Sequence,shrunken log2 fold change
1,RRIRYRPPRLPRPRPRPQVDPRP,-0.205
2,RRIRYRPPRLPRPRPRPQVEPRP,-0.218
3,RRIRYRPPRLPRPRPRPQYRPRP,-0.148
4,RRIRYRPPRLPRPRPRPRDAPRP,-0.103
5,RRIRYRPPRLPRPRPRPRDSPRP,-0.269
6,RRIRYRPPRLPRPRPRPRFDPRP,-0.51
7,RRIRYRPPRLPRPRPRPRFEPRP,-0.386
8,RRIRYRPPRLPRPRPRPRFLPRP,-0.42
9,RRIRYRPPRLPRPRPRPRFNPRP,-0.808
10,RRIRYRPPRLPRPRPRPRGLPRP,-0.0424
11,RRIRYRPPRLPRPRPRPRGSPRP,-0.285
12,RRIRYRPPRLPRPRPRPRHMPRP,-0.55
13,RRIRYRPPRLPRPRPRPRHSPRP,-0.127
14,RRIRYRPPRLPRPRPRPRHWPRP,0.272
15,RRIRYRPPRLPRPRPRPRIDPRP,-0.174
16,RRIRYRPPRLPRPRPRPRKQPRP,-0.129
17,RRIRYRPPRLPRPRPRPRKVPRP,-0.208
18,RRIRYRPPRLPRPRPRPRLTPRP,-0.0803
19,RRIRYRPPRLPRPRPRPRMHPRP,-0.156
20,RRIRYRPPRLPRPRPRPRMPPRP,-0.354
21,RRIRYRPPRLPRPRPRPRMRPRP,0.667
22,RRIRYRPPRLPRPRPRPRNAPRP,0.00628
23,RRIRYRPPRLPRPRPRPRNDPRP,-0.205
24,RRIRYRPPRLPRPRPRPRPGPRP,0.219
25,RRIRYRPPRLPRPRPRPRQCPRP,-0.0146

row,Sequence,shrunken log2 fold change
1,RRIRYRPPRLPRPRPRPRQGPRP,-0.074
2,RRIRYRPPRLPRPRPRPRQRPRP,0.194
3,RRIRYRPPRLPRPRPRPRSPPRP,0.0591
4,RRIRYRPPRLPRPRPRPRTHPRP,-0.318
5,RRIRYRPPRLPRPRPRPRVEPRP,-0.0337
6,RRIRYRPPRLPRPRPRPRVGPRP,0.161
7,RRIRYRPPRLPRPRPRPRWCPRP,0.246
8,RRIRYRPPRLPRPRPRPRWMPRP,-0.208
9,RRIRYRPPRLPRPRPRPRWYPRP,-1.15
10,RRIRYRPPRLPRPRPRPRYAPRP,-0.0163
11,RRIRYRPPRLPRPRPRPRYYPRP,-2.49
12,RRIRYRPPRLPRPRPRPSCPPRP,-0.851
13,RRIRYRPPRLPRPRPRPSEIPRP,-0.271
14,RRIRYRPPRLPRPRPRPSFGPRP,-0.522
15,RRIRYRPPRLPRPRPRPSFVPRP,-0.714
16,RRIRYRPPRLPRPRPRPSGDPRP,-0.514
17,RRIRYRPPRLPRPRPRPSGGPRP,-0.519
18,RRIRYRPPRLPRPRPRPSHNPRP,-0.628
19,RRIRYRPPRLPRPRPRPSKEPRP,-0.0167
20,RRIRYRPPRLPRPRPRPSKYPRP,-0.401
21,RRIRYRPPRLPRPRPRPSLNPRP,-0.646
22,RRIRYRPPRLPRPRPRPSLTPRP,-0.628
23,RRIRYRPPRLPRPRPRPSNFPRP,-0.368
24,RRIRYRPPRLPRPRPRPSPLPRP,-0.55
25,RRIRYRPPRLPRPRPRPSPWPRP,-0.513
